Reference: the supplement of paper PMC10567573
± gives the standard deviation.

Experiment: protein stability index of a GFP-peptide fusion (GPS, HEK-293T) (PSI 1-6); higher = more stable
[1] = treatment: DMSO, c terminus: a fixed tail appended
[2] = treatment: MLN4924 1 uM, 8 h, c terminus: a fixed tail appended
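Also: 24-mer peptide tiles fused after GFP, lentivirally expressed, FACS-sorted into six equal bins by GFP/DsRed ratio, decoded by Illumina sequencing, PSI is the read-weighted mean bin number.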

Sequence	protein stability index [1]	protein stability index [2]	protein stability index (treatment: DMSO, c terminus: native)	protein stability index (treatment: MLN4924 1 uM, 8 h, c terminus: native)
EVDFFQRYFIADLPHLQDSFVDKL [INTS4]	2.23 ± 0.43	2.65 ± 0.25	–	–
EVEEVENVQTEFPGEDENPEKASE [TRIM55]	5.57 ± 0.39	5.47 ± 0.52	–	–
EVFYYSCEYNFVSPSKSFWTRITC [CFHR2]	3.39 ± 0.15	2.31 ± 0.27	–	–
EVGMVKCGSRRERCGYRLVRRQRS [ESR2]	3.19 ± 0.35	3.27 ± 0.43	–	–
EVHERNDGIDPFPLLMNRQRVPKV [EFHC1]	3.67 ± 0.31	3.64 ± 0.3	–	–
EVKIRDWHLKQSPASPERDYSPYY [KRT13]	3.34 ± 0.38	3.35 ± 0.47	–	–
EVVNRKFGNRIKVLRSRIRFIHLV [POMT2]	2.56 ± 0.22	2.43 ± 0.43	–	–
EWELLDPTQKALYNDVMQENYETV [ZNF75A]	4.77 ± 0.086	4.98 ± 0.19	–	–
EYTCDVEKRSRGQVLFDKVCEHLN [EPB41L3]	2.16 ± 0.32	2.05 ± 0.61	–	–
FAVLHWKPPQNPVDTYDVQVTAPG [TNXB]	2.76 ± 0.25	2.68 ± 0.46	–	–
FDALDDYEHHYHTLHGNVCSFCKR [ZNF511]	3.83 ± 0.33	4.19 ± 0.41	–	–
FDVGGQRSERKKWIHCFEGVTAII [GNAI1]	2.29 ± 0.44	1.95 ± 0.37	–	–
FELQRLEFDLSPLNLDIGQVYKET [AASDHPPT]	2.42 ± 0.092	2.29 ± 0.62	–	–
FESFPAGSTLIFYKYCDHENAAFK [TOR1AIP2]	2.17 ± 0.14	2.17 ± 0.23	–	–
FFSEIISSVSDVKFSHSGRYMLTR [PPP2R2C]	2.08 ± 0.48	2.06 ± 0.22	–	–
FIEERRQGLEQFINKIAGHPLAQN [SNX12]	2.73 ± 0.17	2.94 ± 0.47	–	–
FKDLNESLNALEDQDLDALMADLV [APBB1IP]	3.19 ± 0.26	3.52 ± 0.26	–	–
FLCGRALTSDLYAPMVAGALARLG [SLC25A39]	2.85 ± 0.26	3.02 ± 0.64	–	–
FLLRNSQRTVGQLMELCRLYHRAD [EDARADD]	2.12 ± 0.24	2.23 ± 0.25	–	–
FLVRLLMAMAVMLYYSNFVLALEE [MFSD9]	2.85 ± 0.14	3.02 ± 0.21	–	–
FNKPSRVPAPEAFRDPIWSTWALY [MYORG]	2.23 ± 0.46	2.25 ± 0.47	–	–
FNSTYNARVKAFNKTGVSPYSKTL [TRIM9]	2.55 ± 0.41	2.85 ± 0.38	–	–
FPNIASATKFKQLYRSRMNSLEMT [HMOX1]	2.37 ± 0.16	2.62 ± 0.23	–	–

Sequence	protein stability index [1]	protein stability index [2]	protein stability index (treatment: DMSO, c terminus: native)	protein stability index (treatment: MLN4924 1 uM, 8 h, c terminus: native)
FQASNPYLPTRGGTTMASGGRFRC [TRIM55]	2.54 ± 0.65	3.14 ± 0.7	–	–
FQEAMTHLQHKLICTRKPEEIRGG [TENT5D]	3.05 ± 0.17	3.29 ± 0.41	–	–
FQQPAPEYHQPQAPANVAKIQLRL [LOXL2]	2.81 ± 0.23	3.08 ± 0.28	–	–
FRTDPEAKVKLVFVEDQAVVETVF [ZSWIM9]	2.46 ± 0.38	2.5 ± 0.32	–	–
FSHEILRDEESFFGERRIPRGRRI [ALKBH7]	3.34 ± 0.4	3.84 ± 0.4	–	–
FSKSKELHPDRDPGNPSLHSRFVE [DNAJC4]	3.91 ± 0.25	4.22 ± 0.12	–	–
FSLLEELKEGMLMKIKQDRASRTY [FSD1]	2.63 ± 0.42	2.66 ± 0.14	–	–
FSSSSQEAFAASAVGSGERRGGGP [ZBTB22]	3.66 ± 0.32	4.03 ± 0.34	–	–
FTFLRPLSVQQPTALALEPDAIRS [PCDHGC5]	2.89 ± 0.3	3.03 ± 0.31	–	–
FTGNFFYNYMMGIEFNPRIGKWFD [DHCR7]	2.59 ± 0.57	2.21 ± 0.43	–	–
FTLGDCDVIQALDLSVPLMDVGET [FKBP8]	3.53 ± 0.093	3.54 ± 0.24	–	–
FVEYCDVNNDKSISVQELMGCLGV [SMOC2]	2.39 ± 0.86	2.46 ± 0.38	–	–
FVLAEDGRRCKKCTEGPIDLVFVI [MATN2]	3.06 ± 0.44	2.5 ± 0.31	–	–
FVRLFVDENLDRMVPISKQPKEKI [NOL4L]	2.41 ± 0.098	2.65 ± 0.12	–	–
FWNIKQMWDTKTLGLRQHHCRKCG [WDFY1]	2.64 ± 0.25	2.86 ± 0.49	–	–
FWRDWEDYAHGFGNISGEFWLGNE [TNXB]	2.78 ± 0.9	2.46 ± 0.51	–	–
GAASLPSELIVHIFSFLPAPDRLR [FBXO33]	2.6 ± 0.74	2.74 ± 0.39	–	–
GAAVVRPPGHHAEQDAACGFCFFN [HDAC6]	3.14 ± 0.36	3.26 ± 0.25	–	–
GAGAVSRTCTAPLDRLKVLMQVHA [SLC25A25]	2.32 ± 0.48	2.41 ± 0.14	–	–
GALEALELSPPLSPASHVDVDLTI [FOXJ1]	3.17 ± 0.23	3.43 ± 0.36	–	–
GASLRLAVEDGLQQFKQYSRHVTT [M1AP]	3.06 ± 0.15	3.19 ± 0.43	–	–
GASVRGLHPVQKVILNYPSPWDQE [TRAF3IP2]	3.79 ± 0.33	4.1 ± 0.36	–	–
GATAASETLSGHGPLAQPLTLQVL [ADAMTS4]	3.28 ± 0.29	3.19 ± 0.36	–	–

Sequence	protein stability index [1]	protein stability index [2]	protein stability index (treatment: DMSO, c terminus: native)	protein stability index (treatment: MLN4924 1 uM, 8 h, c terminus: native)
GCDPLVKPVGRQACDLQPCPTEPP [ADAMTSL2]	4.2 ± 0.049	4.54 ± 1.2	–	–
GCFLLILGQIVLLPAEARERSRGR [MATN2]	1.97 ± 0.083	2.31 ± 0.48	–	–
GCLENMPEADCIPKEQLSTSFQWV [PLK2]	3.57 ± 0.2	3.45 ± 0.36	–	–
GDIQELYDTTLALGHAAAFSDDCD [GLT8D2]	5.24 ± 0.12	5.23 ± 0.14	–	–
GDLIEITDAKKREALYAQDPSTGC [KMT5A]	5 ± 0.24	4.86 ± 0.33	–	–
GEPGAAAPAMYDDESAIDFSAYID [CEBPD]	5.28 ± 0.21	5.08 ± 0.29	–	–
GEQPEPGEAAAGGAAEEARRLEQR [ACBD3]	5.53 ± 0.34	5.44 ± 0.24	–	–
GEVVTESQKEQRSELDKSSAHSY [PRPH]	–	–	5.67 ± 0.24	5.77 ± 0.1
GGAGSGFGGGYGGGLGGGYGGGLG [KRT13]	3.35 ± 0.2	2.85 ± 0.2	–	–
GGFGGGDGGLLSGNEKITMQNLND [KRT15]	4.76 ± 0.3	4.88 ± 0.27	–	–
GGKSGGIVISPFRLEELTNRLASL [CCDC6]	2.58 ± 0.33	2.69 ± 0.22	–	–
GHLEIVKYLVEHKADLEVSNRHGH [FEM1C]	2.7 ± 0.45	2.94 ± 0.26	–	–
GIAQVKIQGQNKEMLAAACQMFLG [FLOT1]	2.34 ± 0.12	2.69 ± 0.1	–	–
GIEEVTYENCLQALADVEVKYIVE [NLN]	3.29 ± 0.37	3.34 ± 0.34	–	–
GILNRPPAPTATVPAPQPPVTKPL [ZNF207]	4.53 ± 0.19	4.57 ± 0.16	–	–
GISGTTTKKGDLQWNAGEKKLTGG [SNAP91]	4.43 ± 0.077	4.86 ± 0.41	–	–
GLAKEYIDPETKKHIPYREHKSLT [CSNK1G3]	4.21 ± 0.22	4.2 ± 0.13	–	–
GLLQGTSAETSGGLLICLPREQAA [SEPHS2]	3.07 ± 0.16	3.29 ± 0.18	–	–
GLQHAPEPDAADGPYDPNSVRISF [SMAD6]	4.24 ± 0.38	4.49 ± 0.27	–	–
GLQILGHTLRASMRELGLLIFFLF [KCNA4]	2.95 ± 0.6	2.96 ± 0.25	–	–
GLRRLGLHRTEGELQKIVQAGDKD [SLC25A25]	4.45 ± 0.12	4.82 ± 0.52	–	–
GNSSGSDVTSLSSQLPDTPNSMVP [ISL2]	5.13 ± 0.2	4.9 ± 0.32	–	–
GRAQDDVSEWASKAKANGITMYAV [MATN2]	2.56 ± 0.36	2.62 ± 0.39	–	–

Sequence	protein stability index [1]	protein stability index [2]	protein stability index (treatment: DMSO, c terminus: native)	protein stability index (treatment: MLN4924 1 uM, 8 h, c terminus: native)
GRGGRDRFTAESYTVLGDTLIDGG [FSD1]	4.06 ± 0.26	4.08 ± 0.52	–	–
GRYRDARMNDLHYLNLDTWEWNEL [KLHDC2]	2.86 ± 0.24	2.88 ± 0.25	–	–
GSAAKLVCYFTNWAQYRQGEARFL [CHIT1]	2.1 ± 0.36	2.23 ± 0.18	–	–
GSAGRLLAVGTDLYGQRNSAPEQE [GFOD1]	4.61 ± 0.44	4.79 ± 0.21	–	–
GSEVYRMLREPAEPVAAEPKQSGS [PDLIM4]	5.12 ± 0.25	5.03 ± 0.22	–	–
GSPSRPLSRRQLCPLTPGPGKALG [C2CD2L]	3.81 ± 0.35	4.11 ± 0.11	–	–
GSRHPTLVLPLVPELLSTHPFFDT [INTS4]	2.23 ± 0.28	2.31 ± 0.078	–	–
GSVPLPESTRELGELLGEARYYLV [KCTD13]	2.11 ± 0.36	2.35 ± 0.32	–	–
GTAPLNQETAEFFLSLDIPIGELY [ACSBG2]	1.89 ± 0.26	2.32 ± 0.26	–	–
GTLGSCSSSSECLEDSTMGSVADT [PLK2]	5.36 ± 0.11	5.28 ± 0.15	–	–
GTTEAATQDGKEQPELPCAMAMGT [PXN]	5.48 ± 0.13	5.45 ± 0.22	–	–
GVIAAIVQLHNGTKYKKFPHWLDK [STEAP1]	2.6 ± 0.31	2.39 ± 0.63	–	–
GVSPADMYRWKLSSHEPCSATCTT [ADAMTSL2]	2.98 ± 0.33	3.37 ± 0.63	–	–
GWSLGRWTHDGIDINNNFPDLNTL [CPXM2]	2.01 ± 0.085	2.34 ± 0.091	–	–
GYSPNGRDANGWTLLHFSAARGKE [ASB7]	2.91 ± 0.47	2.94 ± 0.19	–	–
HAPTIHFNYRYFEVEEADGNKQWW [CPOX]	2.66 ± 0.38	2.7 ± 0.29	–	–
HCRKCGKAVCGKCSSKRSSIPLMG [WDFY2]	3.94 ± 0.21	3.93 ± 0.17	–	–
HERGLKLHQTIYNQACKLLSDDYE [INTS4]	3.18 ± 0.32	3.47 ± 0.47	–	–
HGSGGSGYPAAPPAVPFAPHFLQG [TBX6]	2.94 ± 0.3	3.06 ± 0.31	–	–
HHSFPYDYSASEYRWHINFTTFFI [SCD]	3.06 ± 0.5	2.86 ± 0.41	–	–
